Measured values as given in paper PMC13276077.
pKd: −log10 of the molar value.

Assays:
Assay in all cases: EMSA
MeCP2 MBD (Homo sapiens) = MeCP2 MBD (Homo sapiens) (UniProt P51608); details: EMSA: 20 mM HEPES pH 7.5, 75 mM NaCl, 125 mM KCl, 50 uM EDTA, 2.5 mM beta-mercaptoethanol, 5% glycerol, BSA, 1.58 uM 47 bp competitor DNA (absent in free DNA …)
[1] = molecular target: MeCP2 R133G R133G (Homo sapiens) (UniProt P51608); details: apparent, competitor DNA, EMSA: 20 mM HEPES pH 7.5, 75 mM NaCl, 125 mM KCl, 50 uM EDTA, 2.5 mM beta-mercaptoethanol, 5% glycerol, BSA, 1.58 uM 47 bp competitor DNA (absent in free DNA …)
[2] = molecular target: MeCP2 full-length, e2 isoform (Homo sapiens) (UniProt P51608); details: EMSA: 20 mM HEPES pH 7.5, 75 mM NaCl, 125 mM KCl, 50 uM EDTA, 2.5 mM beta-mercaptoethanol, 5% glycerol, BSA, 1.58 uM 47 bp competitor DNA (absent in free DNA …)
[3] = molecular target: HisMBP-MeCP2 162-309 (Homo sapiens) (UniProt P51608); details: apparent, competitor DNA, EMSA: 20 mM HEPES pH 7.5, 75 mM NaCl, 125 mM KCl, 50 uM EDTA, 2.5 mM beta-mercaptoethanol, 5% glycerol, BSA, 1.58 uM 47 bp competitor DNA (absent in free DNA …)
[4] = molecular target: MeCP2 AT-DIRmut R188G;R190G;K254N;K256N;R268Q (Homo sapiens) (UniProt P51608); details: apparent, competitor DNA, EMSA: 20 mM HEPES pH 7.5, 75 mM NaCl, 125 mM KCl, 50 uM EDTA, 2.5 mM beta-mercaptoethanol, 5% glycerol, BSA, 1.58 uM 47 bp competitor DNA (absent in free DNA …)
[5] = molecular target: MeCP2 AT-DIRmut;histone octamer R188G;R190G;K254N;K256N;R268Q|H2B T115C;H3.1 C96S;C110A (Homo sapiens;) (UniProt P51608+P0C0S8+P62807+P68431+P62805); details: 20 mM HEPES pH 7.5, 75 mM NaCl, 125 mM KCl, 50 uM EDTA, 2.5 mM beta-mercaptoethanol, 5% glycerol, BSA, 1.58 uM 47 bp competitor DNA (nucleosome assays), absent …, low values mean tight binding
[6] = molecular target: MeCP2 MBD;histone octamer H2B T115C;H3.1 C96S;C110A (Homo sapiens;) (UniProt P51608+P0C0S8+P62807+P68431+P62805); details: 20 mM HEPES pH 7.5, 75 mM NaCl, 125 mM KCl, 50 uM EDTA, 2.5 mM beta-mercaptoethanol, 5% glycerol, BSA, 1.58 uM 47 bp competitor DNA (nucleosome assays), absent …, low values mean tight binding
[7] = molecular target: MeCP2 full-length, e2 isoform;histone H1.0;histone octamer H2B T115C;H3.1 C96S;C110A (Homo sapiens;Homo sapiens;) (UniProt P51608+P07305+P0C0S8+P62807+P68431+P62805); details: 20 mM HEPES pH 7.5, 75 mM NaCl, 125 mM KCl, 50 uM EDTA, 2.5 mM beta-mercaptoethanol, 5% glycerol, BSA, 1.58 uM 47 bp competitor DNA (nucleosome assays), absent …, low values mean tight binding
[8] = molecular target: MeCP2 full-length, e2 isoform;histone octamer H2B T115C;H3.1 C96S;C110A (Homo sapiens;) (UniProt P51608+P0C0S8+P62807+P68431+P62805); details: 20 mM HEPES pH 7.5, 75 mM NaCl, 125 mM KCl, 50 uM EDTA, 2.5 mM beta-mercaptoethanol, 5% glycerol, BSA, 1.58 uM 47 bp competitor DNA (nucleosome assays), absent …, low values mean tight binding
[9] = apparent, no competitor DNA, meCpG at -1
[10] = meCpG at +83, -61, -80 bp from dyad

Sequence: ATGGAACACATTGCACAGGATGTATATATCTGACACGTGCCTGGAGACTAGGGAGTAATCCCCTTGGCGGTTAAAACGCGGGGGACAGCGCGTACGTGCGTTTAAGCGGTGCTAGAGCTGTCTACGACCAATTGAGCGGCCTCGGCACCGGGATTCTCCAGGGCGGCCGCGTATT (double strand) [15-N601-15 nucleosome -1 meCpG]
- pKd (MeCP2 MBD (Homo sapiens); meCpG at -1): 6.09
- pKd ([1]; meCpG at -1): 6.28
- pKd ([2]; meCpG at -1): 6.89

Sequence: ATGGAACACATTGCACAGGATGTATATATCTGACACGTGCCTGGAGACTAGGGAGTAATCCCCTTGGCGGTTAAAACGCGGGGGACAGCGCGTACGTGCGTTTAAGCGGTGCTAGAGCTGTCTACGACCAATTGAGCGGCCTCGGCACCGGGATTCTCCAGGGCGGCCGCGTATT (double strand) [15-N601-15 nucleosome -61 meCpG]
- pKd (MeCP2 MBD (Homo sapiens); meCpG at -61 (GGCACCGGGATT)): 6.09
- pKd ([1]; meCpG at -61 (GGCACCGGGATT)): 6.27
- pKd ([2]; meCpG at -61 (GGCACCGGGATT)): 6.86

Sequence: ATGGAACACATTGCACAGGATGTATATATCTGACACGTGCCTGGAGACTAGGGAGTAATCCCCTTGGCGGTTAAAACGCGGGGGACAGCGCGTACGTGCGTTTAAGCGGTGCTAGAGCTGTCTACGACCAATTGAGCGGCCTCGGCACCGGGATTCTCCAGGGCGGCCGCGTATT (double strand) [15-N601-15 nucleosome unmethylated]
- pKd [3]: 6.62
- pKd (MeCP2 MBD (Homo sapiens)): 6.00
- pKd [1]: 6.22
- pKd [2]: 6.66

Sequence: CAGGATGTATATATCTGACACGTGCCTGGAGACTAGGGAGTAATCCCCTTGGCGGTTAAAACGCGGGGGACAGCGCGTACGTGCGTTTAAGCGGTGCTAGAGCTGTCTACGACCAATTGAGCGGCCTCGGCACCGGGATTCTCCA (double strand) [N601 nucleosome core particle -1 meCpG]
- pKd (MeCP2 MBD (Homo sapiens); [9]): 7.29
- pKd [2, 9]: 7.35

Sequence: GAGCCACAAAATCACCGACGCTCACGGGTGCCCAGTTCGCGCGCCCACCTACCGTGTGAAGTCGTCACTCGGGCTTCTAAGTACGCTTAGCGCACGGTAGAGCGCAATCCAAGGCTAACCACCGTGCATCGATGTTGAAAGAGGCCCTCCGTCCTTATTACTTCAAGTCCCTGGGGTACCCGTTTCACTGCCA (double strand) [16-N603-30 nucleosome 81 meCpA]
- pKd (MeCP2 MBD (Homo sapiens); asymmetric meCpA at 81): 6.57
- pKd ([2]; asymmetric meCpA at 81): 7.19

Sequence: GAGCCACAAAATCACCGACGCTCACGGGTGCCCAGTTCGCGCGCCCACCTACCGTGTGAAGTCGTCACTCGGGCTTCTAAGTACGCTTAGCGCACGGTAGAGCGCAATCCAAGGCTAACCACCGTGCATCGATGTTGAAAGAGGCCCTCCGTCCTTATTACTTCAAGTCCCTGGGGTACCCGTTTCACTGCCA (double strand) [16-N603-30 nucleosome 91 meCpA]
- pKd ([3]; asymmetric meCpA at 91): 6.99
- pKd (MeCP2 MBD (Homo sapiens); asymmetric meCpA at 91): 7.07
- pKd ([1]; asymmetric meCpA at 91): 6.79
- pKd ([2]; asymmetric meCpA at 91): 7.24

Sequence: GAGCCACAAAATCACCGACGCTCACGGGTGCCCAGTTCGCGCGCCCACCTACCGTGTGAAGTCGTCACTCGGGCTTCTAAGTACGCTTAGCGCACGGTAGAGCGCAATCCAAGGCTAACCACCGTGCATCGATGTTGAAAGAGGCCCTCCGTCCTTATTACTTCAAGTCCCTGGGGTACCCGTTTCACTGCCA (double strand) [16-N603-30 nucleosome unmethylated]
- pKd [3]: 7.02
- pKd (MeCP2 MBD (Homo sapiens)): 6.15
- pKd [1]: 6.73
- pKd [2]: 7.02

Sequence: GCTTCACCTCGTGACCCAAGCGACACCGGCACTGGGACAGGATGTATATATGTGACACGTGCCTGGAGACTAGGGAGTAATCCCCTTGGCGGTTAAAACGCGGGGGACAGCGCGTACGTGCGTTTAAGCGGTGCTAGAGCTGTCTACGACCAATTGAGCGGCCTCGGCACCGGGATTCTCCAGGGGATCCGGCATCATGGTCTAGAGCG (double strand) [37-N601-27 nucleosome 3x meCpG]
- pKd [4, 10]: 7.37
- pKd [5, 10]: 7.37
- pKd (MeCP2 MBD (Homo sapiens); [10]): 7.17
- pKd [6, 10]: 7.17
- pKd ([2]; apparent, H1.0 prebound (chromatosome), competitor DNA, meCpG at +83, -61, -80 bp from dyad): 7.34
- pKd [2, 10]: 7.43
- pKd [7, 10]: 7.34
- pKd [8, 10]: 7.43

Sequence: GCTTCACCTCGTGACCCAAGCGACACCGGCACTGGGACAGGATGTATATATGTGACACGTGCCTGGAGACTAGGGAGTAATCCCCTTGGCGGTTAAAACGCGGGGGACAGCGCGTACGTGCGTTTAAGCGGTGCTAGAGCTGTCTACGACCAATTGAGCGGCCTCGGCACCGGGATTCTCCAGGGGATCCGGCATCATGGTCTAGAGCG (double strand) [37-N601-27 nucleosome -1 meCpG]
- pKd ([4]; meCpG at -1 (GACAGCGCGTAC)): 6.92
- pKd ([5]; meCpG at -1 (GACAGCGCGTAC)): 6.92
- pKd (MeCP2 MBD (Homo sapiens); meCpG at -1 (GACAGCGCGTAC)): 6.63
- pKd ([6]; meCpG at -1 (GACAGCGCGTAC)): 6.63
- pKd ([2]; apparent, H1.0 prebound (chromatosome), competitor DNA, meCpG at -1 (GACAGCGCGTAC)): 7.09
- pKd ([2]; meCpG at -1 (GACAGCGCGTAC)): 7.14
- pKd ([7]; meCpG at -1 (GACAGCGCGTAC)): 7.09
- pKd ([8]; meCpG at -1 (GACAGCGCGTAC)): 7.14

Sequence: GCTTCACCTCGTGACCCAAGCGACACCGGCACTGGGACAGGATGTATATATGTGACACGTGCCTGGAGACTAGGGAGTAATCCCCTTGGCGGTTAAAACGCGGGGGACAGCGCGTACGTGCGTTTAAGCGGTGCTAGAGCTGTCTACGACCAATTGAGCGGCCTCGGCACCGGGATTCTCCAGGGGATCCGGCATCATGGTCTAGAGCG (double strand) [37-N601-27 nucleosome unmethylated]
- pKd [5]: 6.78
- pKd (MeCP2 MBD (Homo sapiens)): 6.56
- pKd [6]: 6.56
- pKd [2]: 6.86
- pKd ([2]; apparent, H1.0 prebound (chromatosome), competitor DNA): 6.78
- pKd [7]: 6.78
- pKd [8]: 6.86
